B1: HDV Ribozyme (parent)
chain: GGCCGGCAUGGUCCCAGCCUCCUCGCUGGCGCCGGCUGGGCAACAUUCCGAGGGGACCGUCCCCUCGGUAAUGGCGAAUGGGACCCA

Variants of: B1
Experiment: self-cleavage, relative activity (ratio to wild type); higher = more cleavage; co-transcriptional

| Variant | self-cleavage |
| --- | --- |
| C4G C24A | 0.102 |
| G25C A83G | 0.0302 |
| G31U C58U | 0.571 |
| U27G C57U | 0.987 |
| U23C C44U | 0.554 |
| G52A G80U | 0.262 |
| G80A G81C | 0.106 |
| C22U A83U | 0.199 |
| G5U A51G | 0.875 |
| A43C G52U | 0.402 |
| G17A C19U | 0.119 |
| C13U G34C | 0.0898 |
| C24G C26U | 0.514 |
| G38C A43G | 0.219 |
| G50A U79A | 0.88 |
| A8G A70U | 0.831 |
| U12C U72G | 0.128 |
| U9C C64U | 0.923 |
| U60A C75G | 0.0978 |
| U23G G53C | 0.759 |
| C75G C84A | 0.259 |
| C14G A77U | 0 |
| G25C G52U | 0.141 |
| C41A A78C | 0.185 |

| Variant | self-cleavage |
| --- | --- |
| C41A A71G | 0.91 |
| A42U G76C | 0.639 |
| C24A A87C | 0.645 |
| A8U A77C | 0.0665 |
| C41A C64A | 0.794 |
| U65G G82C | 0.133 |
| C32A C84G | 0.111 |
| U20C C86G | 0.208 |
| U46C G76A | 1.01 |
| U60C U65G | 0.944 |
| C49A C64U | 0.831 |
| G2U U27A | 0.0767 |
| U46G C63A | 0.415 |
| C13U U60C | 0.831 |
| A42U C57U | 0.428 |
| G76U C85G | 1.16 |
| U20G C36G | 0.151 |
| C62G C75A | 0.17 |
| G38A G54A | 0.273 |
| C24U A56G | 0.77 |
| C66A G73A | 0.63 |
| G10C | 0.935 |
| G5U C13U | 0.115 |
| C22U G68C | 0.345 |

| Variant | self-cleavage |
| --- | --- |
| G5C C30A | 0 |
| G25C C32G | 0.104 |
| G50U C61A | 0.986 |
| C30G A78U | 0.0678 |
| C4U A51C | 0.723 |
| G11A U12G | 0.0875 |
| G53C G59U | 0.967 |
| G10C C26A | 1.12 |
| C30U U69A | 0.594 |
| U12G G53U | 1.01 |
| C24U C32U | 0.422 |
| G5C C30G | 0.0875 |
| G10U U27A | 0.642 |
| C22A A45C | 0.115 |
| C3G G80U | 0.0801 |
| C14G C41G | 0.525 |
| G53U G59C | 1.23 |
| C13U U47G | 0.95 |
| A16C A83U | 0.633 |
| G11C C64A | 0.629 |
| A16U G73U | 0.237 |
| C62A U69C | 0.882 |
| U12A C18U | 0.217 |
| G74C C75A | 0.252 |

| Variant | self-cleavage |
| --- | --- |
| C36U U65A | 0.665 |
| C3U U46A | 0.628 |
| G25C C58A | 0.104 |
| A42G C49A | 0.302 |
| G38A C62A | 0.0733 |
| G10U C84U | 0.409 |
| G28U C86G | 0.217 |
| C15U U60G | 0.554 |
| U23G A77U | 0.237 |
| A51C G68U | 0.782 |
| U9A U37C | 1.07 |
| U9A G54U | 1.06 |
| C44A U65A | 0.95 |
| C7A U27A | 0.609 |
| C4G C63U | 0.249 |
| C21G C49G | 0 |
| A42C G80U | 0.219 |
| G25C G68C | 0.0639 |
| G53C G82U | 0.358 |
| G28C G74C | 0.151 |
| C36U A78U | 0.154 |
| G1U C75U | 0.321 |
| G25A G73A | 0.0583 |
| C33G G73A | 0.0308 |

| Variant | self-cleavage |
| --- | --- |
| G53A C57A | 0.866 |
| C41U A43G | 0.356 |
| C19G A51C | 0.0369 |
| G59U A83C | 0.34 |
| C14A A70G | 0.665 |
| A70C A87G | 0.858 |
| G11U C36U | 0.138 |
| C44A C75G | 0.369 |
| G5A C26A | 0.522 |
| C44A U46C | 0.767 |
| C64G G74U | 0.635 |
| C22G C85A | 0 |
| C4U C61U | 0.717 |
| G17U C44U | 0.146 |
| G1A A78G | 0 |
| G10U C44A | 0.277 |
| U23G C86U | 0.877 |
| C62A A70U | 0.955 |
| C26A C30G | 0.17 |
| A16C G55C | 1.01 |
| U27A G68U | 0.875 |
| C26G C44G | 0.554 |
| U23A G52C | 0.946 |
| C24U U37G | 0.138 |

| Variant | self-cleavage |
| --- | --- |
| G76U G82A | 0.343 |
| C13U U27C | 0.615 |
| U9A C49U | 0.831 |
| C15G C84G | 0.222 |
| G2C C26A | 0.314 |
| G17C C58U | 0.302 |
| G1U U60A | 0.343 |
| G17C C30A | 0.342 |
| U23C G82U | 0.312 |
| G55C C57U | 0.976 |
| C62U U72G | 0.649 |
| G54A U79A | 0.465 |
| G6C G68C | 0.364 |
| C30G C49A | 0.116 |
| C44G C63U | 0.81 |
| U69C C75A | 0.0536 |
| G31C C64A | 0.148 |
| C24U G29C | 0.138 |
| A42U G53C | 0.437 |
| C7G G53C | 0 |
| U47C G52A | 0.853 |
| C64A C85U | 0.72 |
| C41A A56U | 0.89 |
| A42U U46C | 0.45 |

| Variant | self-cleavage |
| --- | --- |
| G34U C41A | 0.133 |
| G52U G76U | 1.05 |
| C33A G50C | 0.203 |
| G54C G67U | 0.783 |
| C13U U27G | 1.06 |
| G10A C66U | 0.853 |
| G10A C84U | 0.54 |
| G31C C57A | 0.282 |
| U12C G39C | 0 |
| G17U C75U | 0.181 |
| G39A C75G | 0.143 |
| A8U C48A | 0.875 |
| G34C C48G | 0.162 |
| U9G U37A | 0 |
| G6A G35U | 0.148 |
| G31C C58A | 0.325 |
| G38C G54A | 0.132 |
| G6U A43U | 0.212 |
| C13G U72C | 0.0723 |
| C33U A42C | 0.259 |
| C21A C64G | 0.0604 |
| A43U A77U | 0.151 |
| U65A C85G | 0.604 |

From the RNAGym collection of RNA variant scans (doi:10.7554/elife.80360)
